Measurements taken from the supplement of paper PMC10567573.

B1: CAMK2B (parent)
chain: YQQIKAGAYDFPSPEWDTVTPEAK

Variants of: B1
Test: protein stability index of a GFP-peptide fusion (GPS, HEK-293T) (PSI 1-6); higher = more stable
Conditions: c terminus: a fixed tail appended
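Also: lentivirally expressed fusions sorted by FACS into six bins by GFP to DsRed ratio, PSI derived from sequencing read proportions per bin multiplied by bin number.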

Protein stability index: each site, then its substitutions
K24: C 3.38; D 4.11; H 3.6; P 3.37; E 4.21; F 2.71; W 2.63; I 3.59; G 3.93; S 3.93; T 3.47; Y 3.04; R 3.43; Q 3.81; L 3.1; N 4.11; M 3.27; A 3.78; V 3.55
V19: N 3.97; P 3.69; T 3.96; M 3.95; W 2.79; L 3.53; D 4.23; C 3.82; I 3.79; H 4.01; G 3.92; Q 4.01; Y 2.16; K 3.66; A 3.48; F 1.97; R 2.99; E 3.8; S 3.59
E15: A 2.93; C 2.42; P 2.77; N 3.41; H 2.91; V 2.55; F 2.14; G 2.72; R 2.88; T 2.67; Y 1.99; L 2.52; Q 3.44; I 2.53; S 3.39; W 2.21; D 3.86; M 2.77; K 2.88
A23: F 3.28; S 3.86; W 3.25; P 3.48; Q 4.06; K 3.82; V 3.27; Y 3.43; H 3.92; G 3.94; M 3.28; D 4.36; R 3.69; C 2.98; E 4.05; N 3.97; T 3.74; L 2.81; I 3.28
D17: H 2.85; S 2.77; L 2.51; F 2.07; M 2.6; E 4.15; R 2.57; C 2.34; Y 2.88; P 3.27; I 2.76; V 2.3; G 2.69; N 3.15; T 2.84; W 2; Q 3.17; A 3.25; K 2.69
T20: K 3.41; Q 3.34; L 3.15; E 3.93; V 3.66; I 3.16; Y 3.06; S 3.74; M 3.16; C 3.51; A 3.48; R 3.47; P 3.18; H 3.86; N 3.91; F 3.03; W 2.46; D 4.31; G 3.7
P14: V 3.39; W 2.57; Y 2.89; T 3.82
T18: K 3.87; A 3.69; H 3.63; D 4.25; V 3.1; P 3.82; L 3.35; I 3.06; Y 2.79; W 1.85; G 3.56; N 3.69; E 4.27; Q 4.03; F 3.09; R 3.33; M 3.24; C 3.37; S 3.88
P21: Q 3.91; Y 3.08; I 3; R 3.2; F 2.78; D 4.05; C 3.29; S 3.62; A 3.44; K 3.76; V 3.42; W 2.53; N 3.78; T 3.6; H 3.42; L 3.28; M 3.31; G 3.65; E 4.3
E22: S 2.97; C 2.82; N 3.41; W 2.08; T 3.05; M 2.63; K 2.93; H 2.98; L 2.98; D 3.89; I 3.05; V 2.82; Q 2.67; A 2.9; R 2.91; F 2.3; G 3.27; Y 2.46; P 2.93
W16: V 4.2; N 4.55; H 4.35; I 4.2; R 3.54; Q 4.28; P 4.64; M 4.31; C 4.18; S 4.58; E 4.46; F 4.16; K 3.45; L 4.36; D 4.79; Y 3.53; A 4.07; T 4.39; G 4.35
